Numbering of substitutions follows the chain as printed. In names and notes the source's numbering stands. Ends that are not written are not given here. * marks the point of attachment. FITC = O=C1OC2(c3ccc(O)cc3Oc3cc(O)ccc32)c2ccc(NC(=S)*)cc21
Assays:
[1] = system: Pex5p^2D cells; experiment: Fluorescence microscopy, peroxisomal import of GFP-tagged proteins in Pex5p^2D-expressing cells; format: cell-based, S. cerevisiae; parameters: key to import phenotype category: showed a reduced peroxisomal import and constitute category 1; category 2 characterized by no peroxisomal import; without a noticeable effect on import in Pex5p^2D cells (category 3); conditions: GFP-tagged protein, Pex3p-mCherry marker, SD medium, 2% glucose; for import phenotype category: Pex5p^2D-expressing cells, assessed manually
Description: Query strains were constructed on the basis of an automated mating compatible strain. The query strains contained a peroxisomal marker (Pex3p-mCherry::HIS), a deletion of PEX5 (pex5Δ::NAT) and a plasmid expressing WT or mutant PEX5 (PEX5^WT, PEX5^2D or PEX5^2A). Using an automated mating method ([Cohen and Schuldiner 2011]; [Tong and Boone 2006]), the query strains were crossed with a NOP1pr-N′-GFP-peroxi library ([Dahan et al. 2017]). The NOP1pr-N′-GFP-peroxisomal library is a collection of ∼90 strains containing all the known peroxisomal proteins together with potential peroxisomal proteins and controls, genomically tagged with GFP at their N-terminus and expressed under the generic constitutive SpNOP1 promoter. To perform the manipulations in high-density format we used a RoToR bench top colony arrayer (Singer Instruments). In short: mating was performed on rich medium plates, and selection for diploid cells was performed on SD(MSG)-HIS-URA plates containing Geneticin (200 μg ml^−1) and Nourseothricin (200 μg ml^−1). Sporulation was induced by transferring cells to nitrogen starvation media plates for 7 days. Haploid cells containing the desired mutations were selected by transferring cells to SD-URA-HIS-LYS-ARG-LEU plates containing Geneticin and Nourseothricin (same concentrations as above), alongside the toxic amino acid derivatives Canavanine and Thialysine (Sigma-Aldrich) to select against remaining diploids and select for spores with an α mating type. A similar method was used to generate control, pex5Δ, and pex8Δ strains expressing GFP-Mdh3p (Supplementary Figure 4D), in which the query strain contained a peroxisomal marker (Pex3p-mCherry::NAT) and URA3::GFP-Mdh3p. This query strain was crossed with three strains from the mini peroxisomal deletion library ([Gabay-Maskit et al. 2020]): a control (no deletion), pex5Δ, and pex8Δ strain, all of which contain KAN (Geneticin) resistance.
The yeast collections were visualized using an automated microscopy setup as described previously ([Breker et al. 2013]). In short: cells were transferred from agar plates into 384-well polystyrene plates (Greiner) for growth in liquid media using the RoToR arrayer robot. Liquid cultures were grown in a LiCONiC incubator, overnight at 30 °C in SD-URA-HIS medium. A JANUS liquid handler (PerkinElmer) connected to the incubator was used to dilute the strains to an OD600 of ∼0.2 into plates containing SD medium (6.7 g l^−1 yeast nitrogen base and 2% glucose) supplemented with complete amino acids. Plates were incubated at 30 °C for 4 h. The cultures in the plates were then transferred by the liquid handler into glass-bottom 384-well microscope plates (Matrical Bioscience) coated with Concanavalin A (Sigma-Aldrich). After 20 min, cells were washed three times with SD-Riboflavin complete medium to remove non-adherent cells and to obtain a cell monolayer. The plates were then transferred to the ScanR automated inverted fluorescent microscope system (Olympus) using a robotic swap arm (Hamilton). Images of cells in the 384-well plates were recorded in the same liquid as the washing step at 24 °C using a 60× air lens (NA 0.9) and with an ORCA-ER charge-coupled device camera (Hamamatsu). Images were acquired in two channels: GFP (excitation filter 490/20 nm, emission filter 535/50 nm) and mCherry (excitation filter 572/35 nm, emission filter 632/60 nm). All images were taken at a single focal plane. The same protocol was used to visualize fluorescence signals in GFP-Mdh3p-expressing control, pex5Δ, and pex8Δ strains (Supplementary Figure 4D).

[2] = system: GFP-SKL import in pex5Δ yeast cells; experiment: Fluorescence microscopy, import of GFP-SKL in cells expressing Pex5p variants; format: cell-based, S. cerevisiae; conditions: pex5Δ cells expressing plasmid-encoded Pex5p variant and GFP-SKL; grown in oleate
Experimental: Cells expressing distinct Pex5p variants (wildtype, Pex5p^2A or Pex5p^2D) and GFP-SKL were grown overnight in 50 ml YNO medium supplemented with 0.1% (w/v) glucose to an OD600 of 1–1.5. Aliquots of 5.4 ml were taken and formaldehyde was added to a final concentration of 3.7% (v/v). Samples were incubated for 10 min at RT with slight agitation. Cells were collected by centrifugation (5 min at 2000 g), resuspended in 1 ml of 0.1 M potassium phosphate buffer (pH 6.8) containing 3.7% (v/v) formaldehyde and incubated for 1 h at RT with slight agitation. Following centrifugation (30 s at 16,000 g), cells were resuspended in 1 ml of 0.1 M potassium phosphate buffer (pH 6.8) containing 10 mM ethanolamine and incubated for further 10 min at RT. Subsequently, cells were washed twice with phosphate-buffered saline (PBS) and resuspended in 10–20 µl of PBS containing 0.1% (v/v) Triton X-100. Fixed cells were analyzed within 48 h after preparation.
Fluorescence microscopy was performed using a Zeiss Axio Observer.Z1 microscope equipped with an alpha Plan-Aprochromat 100× objective and an AxioCam MR R3. GFP signal was visualized with a 38 HE filterset from Zeiss. Images were processed using Adobe Photoshop CS5 (version 12.0.4 ×64; Adobe Systems Incorporated). To document the structural integrity of cells, bright field images were acquired, adjusted in a way that only the cell boundaries were visible and subsequently added into the blue channel in Photoshop as reported before ([Motley and Hettema 2007]).

[3] = target: T1, Pex5p wildtype, recombinant His6-tagged (HisPex5p) (S. cerevisiae, UniProt P35056 1-612); experiment: fluorescence polarisation; fluorescence anisotropy; 10 nM FITC-labelled peptide, serial dilutions of Pex5p variant 1.5 nM to 6.6 µM; 50 mM HEPES pH 7.5, 150 mM NaCl; one-site binding-saturation fit; conditions: both partners purified
T1 construct: Pex5p, PTS1 receptor of Saccharomyces cerevisiae, UniProtKB P35056, full length; No cleavage of the His tag is described; the native MS mass of the monomer is printed as 71.459 kDa; also called Pex5p^WT; source: E. coli BL21 RIL (DE3), purified (Ni-NTA, MonoQ anion exchange, SEC)
T1 sequence (looked up): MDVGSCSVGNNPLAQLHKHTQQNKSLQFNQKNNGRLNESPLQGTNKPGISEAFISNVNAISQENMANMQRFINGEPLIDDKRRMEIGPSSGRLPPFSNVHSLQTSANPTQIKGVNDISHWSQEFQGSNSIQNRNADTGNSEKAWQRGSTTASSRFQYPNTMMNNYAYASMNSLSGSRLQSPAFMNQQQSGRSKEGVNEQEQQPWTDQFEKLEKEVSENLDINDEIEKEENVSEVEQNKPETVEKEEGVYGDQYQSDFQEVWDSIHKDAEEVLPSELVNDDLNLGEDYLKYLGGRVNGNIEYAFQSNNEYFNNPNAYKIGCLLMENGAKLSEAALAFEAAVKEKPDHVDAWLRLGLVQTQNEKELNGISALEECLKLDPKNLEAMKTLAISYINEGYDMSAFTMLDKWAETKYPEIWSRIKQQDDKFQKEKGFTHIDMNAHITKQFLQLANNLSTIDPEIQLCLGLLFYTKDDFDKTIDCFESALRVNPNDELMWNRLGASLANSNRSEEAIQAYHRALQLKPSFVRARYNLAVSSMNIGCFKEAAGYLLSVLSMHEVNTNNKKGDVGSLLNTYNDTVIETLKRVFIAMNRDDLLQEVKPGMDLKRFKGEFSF

Question: With “Pex8p: essential component of the import machinery for peroxisomal matrix proteins” as the molecule, how does the import phenotype category [1] read?
Answer: The import phenotype category was “category 1”.

B1: Mls1p (protein, UniProt P30952 1-554, looked up)
Malate synthase 1: MVKVSLDNVKLLVDVDKEPFFKPSSTTVGDILTKDALEFIVLLHRTFNNKRKQLLENRQVVQKKLDSGSYHLDFLPETANIRNDPTWQGPILAPGLINRSTEITGPPLRNMLINALNAPVNTYMTDFEDSASPTWNNMVYGQVNLYDAIRNQIDFDTPRKSYKLNGNVANLPTIIVRPRGWHMVEKHLYVDDEPISASIFDFGLYFYHNAKELIKLGKGPYFYLPKMEHHLEAKLWNDVFCVAQDYIGIPRGTIRATVLIETLPAAFQMEEIIYQLRQHSSGLNCGRWDYIFSTIKRLRNDPNHILPNRNQVTMTSPFMDAYVKRLINTCHRRGVHAMGGMAAQIPIKDDPAANEKAMTKVRNDKIRELTNGHDGSWVAHPALAPICNEVFINMGTPNQIYFIPENVVTAANLLETKIPNGEITTEGIVQNLDIGLQYMEAWLRGSGCVPINNLMEDAATAEVSRCQLYQWVKHGVTLKDTGEKVTPELTEKILKEQVERLSKASPLGDKNKFALAAKYFLPEIRGEKFSEFLTTLLYDEIVSTKATPTDLSKL
Question: How did the import phenotype category [1] turn out when B1 was run?
Answer: The import phenotype category was “category 2”.

B2: Pnc1p: nicotinamidase, imported by piggy-backing on Gpd1p (protein, UniProt P53184 1-216, looked up)
Nicotinamidase: MKTLIVVDMQNDFISPLGSLTVPKGEELINPISDLMQDADRDWHRIVVTRDWHPSRHISFAKNHKDKEPYSTYTYHSPRPGDDSTQEGILWPVHCVKNTWGSQLVDQIMDQVVTKHIKIVDKGFLTDREYYSAFHDIWNFHKTDMNKYLEKHHTDEVYIVGVALEYCVKATAISAAELGYKTTVLLDYTRPISDDPEVINKVKEELKAHNINVVDK
Question: B2 was tested. Which “subcellular distribution / peroxisomal import” value ([1]; Pex5p^2D cells) did it give?
Answer: The value was “no differences in localization”.

B3: Idp3p (protein, UniProt P53982 1-420, looked up)
Isocitrate dehydrogenase …: MSKIKVVHPIVEMDGDEQTRVIWKLIKEKLILPYLDVDLKYYDLSIQERDRTNDQVTKDSSYATLKYGVAVKCATITPDEARMKEFNLKEMWKSPNGTIRNILGGTVFREPIIIPKIPRLVPHWEKPIIIGRHAFGDQYRATDIKIKKAGKLRLQFSSDDGKENIDLKVYEFPKSGGIAMAMFNTNDSIKGFAKASFELALKRKLPLFFTTKNTILKNYDNQFKQIFDNLFDKEYKEKFQALKITYEHRLIDDMVAQMLKSKGGFIIAMKNYDGDVQSDIVAQGFGSLGLMTSILITPDGKTFESEAAHGTVTRHFRKHQRGEETSTNSIASIFAWTRAIIQRGKLDNTDDVIKFGNLLEKATLDTVQVGGKMTKDLALMLGKTNRSSYVTTEEFIDEVAKRLQNMMLSSNEDKKGMCKL
Question: B3 was tested. Which import phenotype category [1] did it give?
Answer: Its import phenotype category is “category 2”.

B4: Pex5p^S507D (protein, UniProt P35056 1-612, looked up, variant S507D)
Peroxisomal targeting signal …: T1 sequence (looked up) with S507D
Question: For B4, which “subcellular distribution of GFP-SKL” value [2] is on record?
Answer: Its value is “wildtype-like distribution of GFP-SKL”.

B5: Pex5p^S523D (protein, UniProt P35056 1-612, looked up, variant S523D)
Peroxisomal targeting signal …: T1 sequence (looked up) with S523D
Question: With B5 as the molecule, how does the “subcellular distribution of GFP-SKL” value [2] read?
Answer: The value was “wildtype-like distribution of GFP-SKL”.

B6: Str3p: peroxisomal cystathionine beta-lyase (protein, UniProt P53101 1-465, looked up)
Cystathionine beta-lyase: MPIKRLDTVVVNTGSQNDQHSASVPPVYLSTTFKVDLNNEDAQNYDYSRSGNPTRSVLQHQIGKLYRVPQENVLAVSSGMTALDVILRGLVLLNGTDNHTPTIIAGDDLYGGTQRLLNFFKQQSHAVSVHVDTSDFEKFKTVFQSLDKVDCVLLESPTNPLCKVVDIPRILRFVKCISPDTTVVVDNTMMSGLNCNPLQLNPGCDVVYESATKYLNGHHDLMGGVIISKTPEIASKLYFVINSTGAGLSPMDSWLLVRGLKTLGVRLYQQQRNAMILAHWLENSCGFKPTRTNKATKTRFVGLRSNPDFKLHKSFNNGPGAVLSFETGSFEHSKRLVSSKKLSIWAVTVSFGCVNSLLSMPCKMSHASIDPELRKERDFPEDLVRLCCGIENIVDLKKDLLAAMVDADIIEVRENGKYLFNKLNKNLAVNTTIDDLHKPLSIYEEFYNQDLIRKDSELNIKSSKL
Question: Which import phenotype category [1] does the source give for B6 here?
Answer: The import phenotype category was “category 3”.

B7: Pcs60p nonapeptide, FITC-YKSSRNKSKL (peptide)
peptide: {FITC}-YKSSRNKSKL
notes: tyrosine added to the peptide amino-terminus for concentration measurements; the nine carboxy-terminal residues of Pcs60p, S. cerevisiae; An extra N-terminal tyrosine stands before the natural stretch; also called Pcs60p peptide; source: synthetic peptide (GenScript)
Question: How did the Kd [3] turn out when B7 was run?
Answer: The Kd was 643 nM.

Reference: publication PMC9929924, “Phosphorylation of the receptor protein Pex5p modulates import of proteins into peroxisomes” (Biological Chemistry, 2022)
